# Test results from the supplement of paper PMC10065799, “High-throughput profiling of sequence recognition by tyrosine kinases and SH2 domains using bacterial peptide display” (eLife, 2023).
# Experiments:
# Grb2 SH2 = Grb2 SH2 (UniProt P62993); assay: SH2 binding enrichment of the phosphorylated peptide, bacterial display (enrichment ratio); higher = better substrate or ligand; peptides without Tyr show the background
# c-Src SH2 = assay: as above
# SHP2-C SH2 = assay: as above
# AncSZ = assay: phosphorylation enrichment, bacterial display (enrichment ratio); higher = better substrate or ligand; peptides without Tyr show the background
# Hck = Hck (UniProt P08631); assay: as above
# Hck, sequence (P08631 whole entry, looked up): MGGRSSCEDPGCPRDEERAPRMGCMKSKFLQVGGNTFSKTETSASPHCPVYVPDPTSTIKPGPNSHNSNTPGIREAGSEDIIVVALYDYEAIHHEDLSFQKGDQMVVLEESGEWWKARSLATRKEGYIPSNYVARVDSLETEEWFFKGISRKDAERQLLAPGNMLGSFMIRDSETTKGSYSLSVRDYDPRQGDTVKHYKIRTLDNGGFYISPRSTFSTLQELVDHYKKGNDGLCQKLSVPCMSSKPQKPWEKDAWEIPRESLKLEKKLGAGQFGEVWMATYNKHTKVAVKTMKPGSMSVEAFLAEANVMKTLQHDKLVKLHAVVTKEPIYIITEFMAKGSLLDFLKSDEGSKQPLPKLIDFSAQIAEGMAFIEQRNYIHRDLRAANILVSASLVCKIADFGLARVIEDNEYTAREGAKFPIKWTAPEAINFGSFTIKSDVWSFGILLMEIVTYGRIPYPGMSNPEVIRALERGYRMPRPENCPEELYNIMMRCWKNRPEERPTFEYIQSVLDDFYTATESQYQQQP
# EPHB2 = EPHB2 (UniProt P29323); assay: as above
# EPHB1 = EPHB1 (UniProt P54762); assay: as above
# Fyn = Fyn (UniProt P06241); assay: as above
# Fyn, sequence (P06241 whole entry, looked up): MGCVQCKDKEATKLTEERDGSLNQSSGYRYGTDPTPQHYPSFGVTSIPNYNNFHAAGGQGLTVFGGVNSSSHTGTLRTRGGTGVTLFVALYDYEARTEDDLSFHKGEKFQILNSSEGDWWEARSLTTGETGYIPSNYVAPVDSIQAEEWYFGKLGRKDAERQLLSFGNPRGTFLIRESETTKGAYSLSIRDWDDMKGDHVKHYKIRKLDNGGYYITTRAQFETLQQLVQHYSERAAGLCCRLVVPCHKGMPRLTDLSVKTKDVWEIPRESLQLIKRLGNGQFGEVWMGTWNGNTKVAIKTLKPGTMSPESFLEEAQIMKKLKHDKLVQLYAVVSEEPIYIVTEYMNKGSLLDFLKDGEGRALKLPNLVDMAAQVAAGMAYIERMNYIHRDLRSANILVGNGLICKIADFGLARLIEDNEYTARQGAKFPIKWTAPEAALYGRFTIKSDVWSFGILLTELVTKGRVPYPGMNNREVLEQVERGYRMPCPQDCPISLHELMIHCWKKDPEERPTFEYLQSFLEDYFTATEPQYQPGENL
# FGFR3 = FGFR3 (UniProt P22607); assay: as above
# FGFR3, sequence (P22607 whole entry, looked up): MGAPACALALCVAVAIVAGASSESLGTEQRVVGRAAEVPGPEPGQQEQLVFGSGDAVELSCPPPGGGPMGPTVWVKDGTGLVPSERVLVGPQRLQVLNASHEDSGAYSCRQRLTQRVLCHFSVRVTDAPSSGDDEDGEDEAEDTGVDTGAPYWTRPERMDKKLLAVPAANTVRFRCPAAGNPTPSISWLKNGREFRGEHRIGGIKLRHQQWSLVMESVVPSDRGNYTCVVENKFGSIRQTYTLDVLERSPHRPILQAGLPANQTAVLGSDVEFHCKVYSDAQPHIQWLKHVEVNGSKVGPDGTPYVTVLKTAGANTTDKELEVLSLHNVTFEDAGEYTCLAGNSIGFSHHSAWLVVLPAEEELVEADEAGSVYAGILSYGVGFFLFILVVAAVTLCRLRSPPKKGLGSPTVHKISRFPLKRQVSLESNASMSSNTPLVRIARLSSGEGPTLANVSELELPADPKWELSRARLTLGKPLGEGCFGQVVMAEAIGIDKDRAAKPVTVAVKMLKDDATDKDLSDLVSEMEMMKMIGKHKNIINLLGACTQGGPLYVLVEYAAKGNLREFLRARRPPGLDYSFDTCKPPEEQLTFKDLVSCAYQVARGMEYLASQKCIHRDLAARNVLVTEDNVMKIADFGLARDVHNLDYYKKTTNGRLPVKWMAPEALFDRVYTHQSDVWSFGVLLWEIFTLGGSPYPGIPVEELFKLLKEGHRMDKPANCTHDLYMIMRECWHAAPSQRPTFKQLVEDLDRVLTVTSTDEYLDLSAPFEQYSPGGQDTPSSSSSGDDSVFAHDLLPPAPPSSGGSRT
# MERTK = MERTK (UniProt Q12866); assay: as above
# MERTK, sequence (Q12866 whole entry, looked up): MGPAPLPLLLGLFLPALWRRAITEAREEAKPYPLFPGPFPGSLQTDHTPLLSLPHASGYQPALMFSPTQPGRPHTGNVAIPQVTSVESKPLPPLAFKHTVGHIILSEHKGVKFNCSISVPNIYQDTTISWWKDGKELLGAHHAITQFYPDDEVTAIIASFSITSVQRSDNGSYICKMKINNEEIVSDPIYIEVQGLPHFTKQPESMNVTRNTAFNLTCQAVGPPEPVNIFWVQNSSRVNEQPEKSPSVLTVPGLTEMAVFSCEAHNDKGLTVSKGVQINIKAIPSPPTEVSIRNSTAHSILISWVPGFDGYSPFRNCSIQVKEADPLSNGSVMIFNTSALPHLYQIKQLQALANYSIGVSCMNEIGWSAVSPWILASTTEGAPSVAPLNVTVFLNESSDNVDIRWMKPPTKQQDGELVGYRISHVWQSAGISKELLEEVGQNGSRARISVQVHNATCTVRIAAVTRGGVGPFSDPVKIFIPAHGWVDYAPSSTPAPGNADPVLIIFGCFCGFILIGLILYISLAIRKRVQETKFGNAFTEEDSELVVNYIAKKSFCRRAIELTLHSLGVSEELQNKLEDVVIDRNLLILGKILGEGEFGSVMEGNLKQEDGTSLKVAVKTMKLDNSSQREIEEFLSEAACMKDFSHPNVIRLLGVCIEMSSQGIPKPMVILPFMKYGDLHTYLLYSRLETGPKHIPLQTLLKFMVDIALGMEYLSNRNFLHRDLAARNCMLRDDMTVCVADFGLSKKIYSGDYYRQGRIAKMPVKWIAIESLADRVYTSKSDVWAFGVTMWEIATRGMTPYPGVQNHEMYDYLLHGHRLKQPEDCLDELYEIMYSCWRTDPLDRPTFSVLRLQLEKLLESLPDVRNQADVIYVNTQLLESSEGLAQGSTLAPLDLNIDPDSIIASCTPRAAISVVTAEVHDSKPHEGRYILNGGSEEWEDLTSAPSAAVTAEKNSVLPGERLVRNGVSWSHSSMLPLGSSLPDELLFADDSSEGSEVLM
# Jak2 = Jak2 (UniProt O60674); assay: as above
# Jak2, sequence (O60674 whole entry, looked up): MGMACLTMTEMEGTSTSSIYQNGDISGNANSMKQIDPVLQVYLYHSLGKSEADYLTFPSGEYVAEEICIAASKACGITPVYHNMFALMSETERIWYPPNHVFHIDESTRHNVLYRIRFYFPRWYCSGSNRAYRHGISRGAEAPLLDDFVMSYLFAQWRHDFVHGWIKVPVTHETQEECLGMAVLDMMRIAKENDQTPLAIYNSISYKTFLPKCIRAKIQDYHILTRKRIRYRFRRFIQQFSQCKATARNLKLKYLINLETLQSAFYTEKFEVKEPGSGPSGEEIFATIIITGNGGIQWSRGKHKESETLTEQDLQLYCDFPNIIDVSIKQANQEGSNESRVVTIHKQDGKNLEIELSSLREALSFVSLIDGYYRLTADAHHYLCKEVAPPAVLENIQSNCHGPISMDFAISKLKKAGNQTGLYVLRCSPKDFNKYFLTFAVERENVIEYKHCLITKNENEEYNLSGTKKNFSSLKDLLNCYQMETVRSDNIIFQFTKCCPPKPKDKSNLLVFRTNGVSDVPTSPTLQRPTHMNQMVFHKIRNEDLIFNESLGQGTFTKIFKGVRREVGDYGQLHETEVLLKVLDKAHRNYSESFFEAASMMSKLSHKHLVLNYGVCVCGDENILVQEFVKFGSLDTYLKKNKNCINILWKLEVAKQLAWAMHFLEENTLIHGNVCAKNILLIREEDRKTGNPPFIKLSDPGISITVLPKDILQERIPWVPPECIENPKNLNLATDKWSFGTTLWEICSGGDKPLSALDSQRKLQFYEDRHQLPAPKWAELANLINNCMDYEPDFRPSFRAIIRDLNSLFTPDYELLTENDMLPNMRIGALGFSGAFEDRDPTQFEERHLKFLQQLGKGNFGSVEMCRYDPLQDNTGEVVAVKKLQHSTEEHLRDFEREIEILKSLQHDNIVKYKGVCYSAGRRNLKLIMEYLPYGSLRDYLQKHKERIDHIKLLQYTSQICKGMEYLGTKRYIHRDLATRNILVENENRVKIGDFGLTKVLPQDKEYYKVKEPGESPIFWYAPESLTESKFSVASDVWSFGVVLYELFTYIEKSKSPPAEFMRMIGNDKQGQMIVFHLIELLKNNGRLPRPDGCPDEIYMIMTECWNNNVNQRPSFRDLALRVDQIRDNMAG
# Fer (mouse) = assay: as above
# c-Src = assay: as above
# Fes = Fes (UniProt P07332); assay: as above
# Fes, sequence (P07332 whole entry, looked up): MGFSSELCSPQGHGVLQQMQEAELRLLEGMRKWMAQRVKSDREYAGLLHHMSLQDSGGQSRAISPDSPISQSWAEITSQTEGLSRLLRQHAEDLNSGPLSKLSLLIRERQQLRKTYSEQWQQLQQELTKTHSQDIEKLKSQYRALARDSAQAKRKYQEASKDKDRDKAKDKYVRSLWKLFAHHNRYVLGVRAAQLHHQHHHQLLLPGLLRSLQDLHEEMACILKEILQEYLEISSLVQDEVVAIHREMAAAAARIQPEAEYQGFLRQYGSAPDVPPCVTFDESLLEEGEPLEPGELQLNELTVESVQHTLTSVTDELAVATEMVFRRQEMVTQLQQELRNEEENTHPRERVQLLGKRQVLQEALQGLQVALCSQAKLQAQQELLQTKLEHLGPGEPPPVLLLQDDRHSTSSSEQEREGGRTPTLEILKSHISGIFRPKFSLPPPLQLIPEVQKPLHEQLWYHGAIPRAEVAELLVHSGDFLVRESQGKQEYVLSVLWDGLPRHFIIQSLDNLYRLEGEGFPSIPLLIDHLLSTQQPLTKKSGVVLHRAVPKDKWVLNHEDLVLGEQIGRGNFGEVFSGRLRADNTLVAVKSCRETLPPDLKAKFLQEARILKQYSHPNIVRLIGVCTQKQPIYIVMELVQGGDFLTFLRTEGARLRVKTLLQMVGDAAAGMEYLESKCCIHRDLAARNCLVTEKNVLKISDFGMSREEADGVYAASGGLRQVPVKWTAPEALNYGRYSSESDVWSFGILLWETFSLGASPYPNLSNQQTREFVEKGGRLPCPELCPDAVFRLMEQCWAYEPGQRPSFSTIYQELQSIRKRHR
# c-Abl (mouse) = assay: as above
# FGFR1 = FGFR1 (UniProt P11362); assay: as above
# 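For SH2 binding enrichment of the phosphorylated peptide, bacterial display in this document: peptide library displayed on the E. coli surface as eCPX fusions, selected cells deep-sequenced, score is each peptide's frequency after selection divided by its frequency in the input.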
# 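For phosphorylation enrichment, bacterial display in this document: 11-residue human phosphosite peptides and single-mutation variants displayed on the E. coli surface, counted by deep sequencing, each peptide's frequency after selection divided by its frequency in the unselected input library; frequency after pTyr selection over input frequency; kinase dosed for 20-30% of maximal phosphorylation in three min.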
# Grb2 SH2, sequence (P62993 whole entry, looked up): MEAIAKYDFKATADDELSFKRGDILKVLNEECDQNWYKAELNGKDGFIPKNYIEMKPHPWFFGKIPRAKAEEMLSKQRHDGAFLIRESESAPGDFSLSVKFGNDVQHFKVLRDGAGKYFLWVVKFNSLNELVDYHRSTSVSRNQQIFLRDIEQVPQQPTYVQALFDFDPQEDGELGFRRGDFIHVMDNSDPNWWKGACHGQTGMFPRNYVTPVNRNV
Sequence,SH2 binding enrichment (Grb2 SH2),SH2 binding enrichment (c-Src SH2),SH2 binding enrichment (SHP2-C SH2),phosphorylation enrichment (AncSZ),phosphorylation enrichment (Hck),phosphorylation enrichment (EPHB2),phosphorylation enrichment (EPHB1),phosphorylation enrichment (Fyn),phosphorylation enrichment (FGFR3),phosphorylation enrichment (MERTK),phosphorylation enrichment (Jak2),phosphorylation enrichment (Fer (mouse)),phosphorylation enrichment (c-Src),phosphorylation enrichment (Fes),phosphorylation enrichment (c-Abl (mouse)),phosphorylation enrichment (FGFR1)
RGEKQYLAAPL [ALOX12_Y295],0.709,0.409,0.431,0.777,0.545,0.461,0.402,0.436,0.341,0.377,0.523,0.365,0.505,0.416,0.504,0.754
RGERPYGGGGG [FUS_Y526_R522G],1.24,0.661,0.673,0.487,0.444,0.418,0.185,0.474,0.377,0.48,0.65,0.337,0.415,0.643,0.397,0.419
RGVVMYTSKDR [ZG16B_Y136_M133V],0.91,0.596,0.981,0.694,0.677,0.724,0.601,0.665,0.568,0.552,1.02,0.41,0.622,0.865,1.4,0.433
RGYRQYAYDGK [HLA-A_Y140_D140Y],0.679,0.44,0.607,0.478,0.294,0.243,0.674,0.252,0.39,0.423,0.402,0.317,0.434,0.474,0.532,0.426
RHPEVYHHLGI [NVL_Y290_V295I],1.09,0.932,1.11,0.694,1.53,0.599,0.837,0.908,0.999,0.71,0.834,0.641,0.621,0.835,0.731,1.14
RIVEIYSRRLR [GCH1_Y175_Q180R],0.761,0.404,0.353,0.691,0.736,0.654,0.728,0.922,0.549,0.773,0.619,1.15,0.81,0.623,0.692,0.292
RKPDIYGRLAS [MCM4_Y459_E460G],1.16,1.02,0.764,0.628,5.06,0.545,0.513,4.7,1.05,0.753,0.535,0.747,2.24,0.807,0.67,0.757
RKTAKYLLKGE [CDH5_Y82_N79T],0.861,0.461,0.709,0.71,0.672,0.54,0.915,0.598,0.704,0.832,0.628,0.878,0.535,0.644,1.1,1.04
RLASVYTKRCS [CPT2_Y508_P504L],0.868,0.611,0.864,0.917,0.578,0.501,0.706,0.528,0.695,0.316,0.739,0.414,0.557,0.889,0.643,0.4
RLLVVYPWNQR [HBB_Y36_T39N],2.12,1.54,1.84,1.1,0.431,0.752,0.391,0.603,0.62,0.636,1.04,0.595,0.351,1.4,0.735,0.557
RLQEDYDHSFF [ESD_Y258_G257D_YF],0.901,0.339,0.914,1.74,0.869,0.912,1.21,0.792,1.2,0.649,1.65,0.919,1.07,1.55,1.19,0.842
RMETEYGPSVT [MXRA5_Y2717],1.07,0.584,0.622,0.937,0.752,0.929,0.779,0.823,0.718,0.54,0.985,0.408,0.787,1.01,0.92,0.91
RMQLPYDSTWE [PDGFRB_Y589_P584R],0.445,0.91,0.747,1.23,0.764,0.704,0.76,0.851,0.963,0.447,1.17,0.434,0.996,1.33,0.913,0.779
RNIQQHNSFVS [PRKAR1A_Y373_Y373H],0.806,0.557,0.694,0.601,0.378,0.343,0.604,0.443,0.448,0.329,0.461,0.379,0.367,0.451,0.438,0.42
